Results: patent US20110092418A1 (FLOREKY INSTITUTE OF EXPERIMENTAL PHYSIOLOGY AND MEDICINE, published 2011)
No end group written: not given here.

T1: LGR7 (RXFP1) receptor (UniProt Q9HBX9 1-757, limits assumed)
T1 sequence (looked up): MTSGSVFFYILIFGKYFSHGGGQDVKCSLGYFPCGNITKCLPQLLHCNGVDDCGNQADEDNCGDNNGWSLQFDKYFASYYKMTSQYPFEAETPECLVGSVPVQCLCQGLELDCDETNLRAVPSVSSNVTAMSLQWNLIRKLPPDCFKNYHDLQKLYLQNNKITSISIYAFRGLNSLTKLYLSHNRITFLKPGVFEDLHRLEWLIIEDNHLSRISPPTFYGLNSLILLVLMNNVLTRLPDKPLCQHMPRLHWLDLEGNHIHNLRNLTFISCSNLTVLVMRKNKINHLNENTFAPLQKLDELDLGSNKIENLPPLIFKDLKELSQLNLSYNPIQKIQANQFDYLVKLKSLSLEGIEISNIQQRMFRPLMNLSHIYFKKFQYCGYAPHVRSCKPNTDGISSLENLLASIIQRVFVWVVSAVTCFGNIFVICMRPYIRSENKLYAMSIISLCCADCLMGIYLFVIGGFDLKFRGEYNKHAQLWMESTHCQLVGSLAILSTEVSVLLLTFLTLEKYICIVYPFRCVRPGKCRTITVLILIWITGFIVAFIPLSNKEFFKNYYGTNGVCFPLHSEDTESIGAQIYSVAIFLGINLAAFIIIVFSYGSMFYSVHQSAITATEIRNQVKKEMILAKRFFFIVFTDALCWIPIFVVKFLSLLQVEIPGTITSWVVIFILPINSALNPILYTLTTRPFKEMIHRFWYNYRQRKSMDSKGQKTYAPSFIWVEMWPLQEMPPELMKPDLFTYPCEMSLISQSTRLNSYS


Columns and labels:
LGR7 (RXFP1) receptor [1] = biological target: T1, LGR7 (RXFP1) receptor; assay: cell-based or functional assay
LGR7 (RXFP1) receptor [2] = biological target: T1, LGR7 (RXFP1) receptor; assay: whole cell competition binding against 100 pM [125I]-H2 relaxin, LGR7-transfected HEK293T cells
Protocol: Non-specific binding was determined by addition of excess unlabelled relaxin (500 nM). Data were analysed using GraphPad Prism.

LGR8 (RXFP2) receptor = LGR8 (RXFP2) receptor (UniProt Q8WXD0 1-754, limits assumed); assay: cell-based or functional assay
LGR8 (RXFP2) receptor, sequence (Q8WXD0 whole entry): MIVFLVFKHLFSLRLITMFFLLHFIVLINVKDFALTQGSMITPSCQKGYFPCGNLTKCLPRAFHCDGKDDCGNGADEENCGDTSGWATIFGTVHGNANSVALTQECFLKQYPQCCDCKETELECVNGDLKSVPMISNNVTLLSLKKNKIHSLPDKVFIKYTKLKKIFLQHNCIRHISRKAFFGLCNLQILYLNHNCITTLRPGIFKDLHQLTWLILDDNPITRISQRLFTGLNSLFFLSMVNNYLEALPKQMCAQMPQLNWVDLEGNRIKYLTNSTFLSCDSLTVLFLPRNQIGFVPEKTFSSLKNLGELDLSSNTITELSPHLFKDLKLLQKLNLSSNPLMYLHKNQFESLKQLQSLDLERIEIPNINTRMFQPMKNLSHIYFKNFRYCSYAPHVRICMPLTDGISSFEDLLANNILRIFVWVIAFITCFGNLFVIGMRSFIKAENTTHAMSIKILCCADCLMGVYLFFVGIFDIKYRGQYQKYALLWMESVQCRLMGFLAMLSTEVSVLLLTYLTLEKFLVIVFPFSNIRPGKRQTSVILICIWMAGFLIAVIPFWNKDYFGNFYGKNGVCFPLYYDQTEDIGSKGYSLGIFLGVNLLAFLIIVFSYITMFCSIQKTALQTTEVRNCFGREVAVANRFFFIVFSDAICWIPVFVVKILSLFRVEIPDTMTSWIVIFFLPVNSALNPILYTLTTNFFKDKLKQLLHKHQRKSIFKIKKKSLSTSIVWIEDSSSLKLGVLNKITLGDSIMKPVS

Binder	LGR7 cAMP pEC50 (LGR7 (RXFP1) receptor [1]) [pEC50]	pKi (LGR7 (RXFP1) receptor [2]) [pKi]	LGR8 cAMP pEC50 (LGR8 (RXFP2) receptor) [pEC50]
human relaxin 3 (H3), wild-type; A + B chain (ligand, disulfide (positions not given here); also: A and B chains joined by disulphide bonds, places not given here, domain: B chain; Two-chain peptide hormone, A and B chains joined by disulphide bonds; also called H3 relaxin) chain 1: RAAPYGVRLCGREFIRAVIFTCGGSRW chain 2: DVLAGLSSSCCKWGCSKSEISSLC	9.36	7.88	–
chimeric relaxin polypeptide H2 B chain/H3 relaxin A chain (designed binder, Synthetic two-chain chimera; The synthesis protocol is detailed only for H2-B/H1-A; also called H2-B/H3-A) chain 1: DSWMEEVIKLCGRELVRAQIAICGMSTWS chain 2: DVLAGLSSSCCKWGCSKSEISSLC	8.1	6.8	5.34
chimeric relaxin polypeptide H2 B chain/INSL3 A chain (designed binder, Synthetic two-chain chimera; The synthesis protocol is detailed only for H2-B/H1-A; also called H2-B/INSL3-A) chain 1: DSWMEEVIKLCGRELVRAQIAICGMSTWS chain 2: AAATNPARYCCLSGCTQQDLLTLCPY	< 6	6.21	> 6

More lines, now with the values ahead:

LGR7 cAMP pEC50 (LGR7 (RXFP1) receptor [1]) [pEC50]	pKi (LGR7 (RXFP1) receptor [2]) [pKi]	LGR8 cAMP pEC50 (LGR8 (RXFP2) receptor) [pEC50]	Binder
10.3	9.03	9.13	human relaxin 2 (H2), wild-type; A + B chain (ligand, disulfide (positions not given here); also: A and B chains joined by disulphide bonds, places not given here, Two-chain peptide hormone, A and B chains joined by disulphide bonds; also called H2 relaxin) chain 1: DSWMEEVIKLCGRELVRAQIAICGMSTWS chain 2: QLYSALANKCCHVGCTKRSLARFC
6.37	5.31	–	chimeric relaxin polypeptide H2 B chain/INSL5 A chain (designed binder, Synthetic two-chain chimera; The synthesis protocol is detailed only for H2-B/H1-A; also called H2-B/INSL5-A) chain 1: DSWMEEVIKLCGRELVRAQIAICGMSTWS chain 2: DLQTLCCTDGCSMTDLSALC
